For the test, the target named is T1, His-SUMO-FGF23 (N-terminal domain of human FGF23, wild type) (human, UniProt Q9GZV9 25-204).
T1 chain: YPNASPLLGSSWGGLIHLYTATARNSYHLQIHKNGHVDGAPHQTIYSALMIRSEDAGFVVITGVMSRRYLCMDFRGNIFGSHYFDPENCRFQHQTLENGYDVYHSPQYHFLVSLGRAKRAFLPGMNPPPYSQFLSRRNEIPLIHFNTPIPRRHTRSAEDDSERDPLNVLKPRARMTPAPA
In words: ELISA.

Residue numbers refer to the chain shown, from its start. Names and notes keep the numbering of the source.

B1: Burosumab (wild type) (antibody, V domains shown)
VH: QVQLVQSGAEVKKPGASVKVSCKASGYTFTNHYMHWVRQAPGQGLEWMGIINPISGSTSNAQKFQGRVTMTRDTSTSTVYMELSSLRSEDTAVYYCARDIVDAFDFWGQGTMVTVSS
VL: AIQLTQSPSSLSASVGDRVTITCRASQGISSALVWYQQKPGKAPKLLIYDASSLESGVPSRFSGSGSGTDFTLTISSLQPEDFATYYCQQFNDYFTFGPGTKVDIK
For orientation: Kd means the equilibrium constant for the complex coming apart. A low value points to a tighter complex. Regarding B1, the Kd was found to be 0.77 nM.

B2: Burosumab VL:A32S (antibody, V domains shown)
VH: B1 VH
VL: B1 VL with A32S
B2 showed a Kd of 0.48 nM.

B3: Burosumab VH:V97A (antibody, V domains shown)
VH: B1 VH with V101A
VL: B1 VL
The molecule B3 returned a Kd of 0.65 nM.

B4: Burosumab variant with combined VH:V97A and VL:A32S mutations (antibody, V domains shown)
VH: B1 VH with V101A
VL: B1 VL with A32S
With B4, binding was put at a Kd of 0.21 nM.

Values taken from article PMC9427789 (2022).
